pEC50, pIC50, pKd: −log10 of the molar value. Like-named read-outs stand apart in the source and are kept apart here.
Experiments:
[1] = target: SARS-CoV-2 Spike Trimer, His Tag (BA.5/Omicron) (MALS verified) (AcroBiosystems, SPN-C522e) (SARS-CoV-2) (UniProt P0DTC2); experiment: competition ELISA: blocks biotin-ACE2 binding to coated spike
[2] = target: SARS-CoV-2 B.1.1.529 Spike Protein (Omicron) (SARS-CoV-2) (UniProt P0DTC2); experiment: as above
[3] = target: SARS-CoV-2 Spike Trimer, His Tag (BA.4/Omicron) (MALS verified) (AcroBiosystems, SPN-C5229) (SARS-CoV-2) (UniProt P0DTC2); experiment: as above
[4] = target: Recombinant SARS-CoV-2 BA.2 Spike (GCN4-IZ) His Protein, CF (R&D, 11109-CV) (SARS-CoV-2) (UniProt P0DTC2); experiment: as above
[5] = target: SARS-CoV-2 B.1.617.2 Spike Protein (R&D, Cat. #10878-CV) (SARS-CoV-2) (UniProt P0DTC2); experiment: direct ELISA on coated spike
[6] = target: SARS-CoV-2 B.1.1.529 Spike Protein (Omicron) (SARS-CoV-2) (UniProt P0DTC2); experiment: BLI (ForteBio), mAb on AHC sensor, spike in solution
[7] = target: SARS-CoV-2 B.1.617.2 Spike Protein (R&D, Cat. #10878-CV) (SARS-CoV-2) (UniProt P0DTC2); experiment: as above
[8] = target: SARS-CoV-2 B.1.617.2 Spike Protein (R&D, Cat. #10878-CV) (SARS-CoV-2) (UniProt P0DTC2); experiment: competition ELISA: blocks biotin-ACE2 binding to coated spike
[9] = target: SARS-CoV-2 B.1.617.2 Spike Protein (R&D, Cat. #10878-CV) (SARS-CoV-2) (UniProt P0DTC2); experiment: as above; remark: listed apart in the source

| Substance | pIC50 [1] | pIC50 [2] | pIC50 [3] | pIC50 [4] | pEC50 [5] | pKd [6] | pKd [7] | pIC50 [8] | pIC50 [9] |
| --- | --- | --- | --- | --- | --- | --- | --- | --- | --- |
| Bebtelovimab (antibody) | 8.46 | 8.17 | 8.39 | 8.51 |  |  |  |  |  |
| Casirivimab (antibody) |  |  |  |  | 10.40 | 8.11 | 9.32 | 8.96 | 9.02 |
| Imdevimab (antibody) |  |  |  |  | 10.17 | 6.34 | 8.82 |  |  |

— patent US20260250363A1
